Reference: the supplement of paper PMC9170038

Tested on: MS2 coat protein
Experiment: apparent KD of MS2 coat protein; designed switch direction (-1 OFF switch, 1 ON switch): -1; higher = weaker reporter binding
Summary of the method: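 Designed RNA switches sharing common flanks were transcribed on Illumina chips by stalled E. coli RNA polymerase. They were titrated with SNAP-549-labelled MS2 coat protein, from 0.7 or 1.5 nM doubling to 3 µM, in Tris-HCl pH 7.5 buffer with KCl, MgCl2, BSA, DTT, tRNA and Tween-20. Titrations ran without input, with 200 uM small-molecule ligand, or with an oligonucleotide input. The apparent KD of each design is the median over its clusters, after curve-fitting of normalised cluster fluorescence.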

[1] = Eterna round: R95, input ligand: FMN 200 uM
[2] = Eterna round: R95, input ligand: microRNA oligo, concentration not stated
[3] = Eterna round: R95, input ligand: none
[4] = input ligand: microRNA oligo, concentration not stated

Row | Sequence | apparent KD of MS2 coat protein (input ligand: FMN 200 uM) [nM] | apparent KD of MS2 coat protein (input ligand: none) [nM] | apparent KD of MS2 coat protein [1] [nM] | apparent KD of MS2 coat protein [2] [nM] | apparent KD of MS2 coat protein [3] [nM] | apparent KD of MS2 coat protein [4] [nM]
1 | ACAAGCUUUUGCUCGUCUUACAUGAGGAUCACCCAUGUCGGGAACAUGCAUACAUACAACAUAUAAACAGUAACAGA [high energy, high % A (36%)] (Eterna round: R97, puzzle: Sensor, turn-off variant 1) | 20.1 | 21.2 |  |  |  | 
2 | ACAAGCUUUUUGUUCGUCUUAUAAUAAUAAAUAAAGAUAACAUGAGGAUCACCCAUGUAACAAAGACGGACUCAUGU [Sesor Array 18 - Jieux - Sensor v3, turn-off variant 2] (puzzle: Sensor v3, turn-off variant 2) |  |  | 18.2 | 279 | 16.3 | 
3 | ACAAGCUUUUUGUUCGUCUUAUAAUAAUAAAUAAAUAUAACAUGAGGAUCACCCAUGUUAAGAAGACAACCUCAUGU [Sesor Array 25 - Jieux - Sensor v3, turn-off variant 2] (puzzle: Sensor v3, turn-off variant 2) |  |  | 157 | 606 | 305 | 
4 | ACAAGUUUUUUGUUUUUUAACAUGAGGAUCACCCAUGUAUUUUUAGAGGAUGUGGGAAUAAGAGCUCUUUGUCUUAU [JR_SV3TOV1_Sub097] (puzzle: Sensor v3, turn-off variant 1) |  |  | 38.6 | 90.3 | 41.2 | 
5 | ACACAGCGAGGAUAUACAUGAGGAUCACCCAUGUGGCGGCCGUUACGGUAGCGCUAGUGUAGAAGGCGCAUUGG [EX3 #36] (Eterna round: R97, puzzle: Exclusion 3) | 65.8 | 94.2 |  |  |  | 
6 | ACAGACCGUGUUAGGAUAUUAUUUUACUCAAGUAGUGAGAAGGGACAUGAGGAUCACCCAUGUGUGGGAGUUGA [Eternabot (L2) Solution 42] (Eterna round: R97, puzzle: Brourd's mod of Exclusion 4) | 83 | 87 |  |  |  | 
7 | ACAGUACUGCAAGGAUAUCGUUCUAGUUUAUUACGAGAAGGUGCUUUAGUUAUUUCUUUGGGUUGACAUGAGGAUCACCCAUGU [JR_ExcNG1_Sub056] (Eterna round: R96, puzzle: Exclusion NG 1) | 156 | 144 |  |  |  | 143
8 | ACAGUAUGAUCCGCUCAACAUGAGGAUCACCCAUGUGAUGACUAGGAUAUUAGUAGCCCGCGCAUUAAGAAGGAGUUACGAUUG [Eternabot solution 33] (Eterna round: R96, puzzle: Exclusion NG 3) | 20 | 23.6 |  |  |  | 13.9
9 | ACAUGACUGCUAGGAUAUAGAUGACAUGAGGAUCACCCAUGUUAUCCCAUGUUGACGGAAACCGACUAGAAGGAGCAACAUAUG [Ex NG2 #8] (Eterna round: R96, puzzle: Exclusion NG 2) | 64.7 | 46.5 |  |  |  | 30.6
10 | ACAUGAGGAUCACCCAUGUAAACAUGAUGGCUGAUGUAGAGCUAGGAUAUGAGUGACUUUCUAUCUCAGAAGGAGCUUGACUGG [Deportation 44 - Jieux - Exclusion NG 3] (Eterna round: R96, puzzle: Exclusion NG 3) | 30.1 | 45.2 |  |  |  | 26.9
11 | ACAUGAGGAUCACCCAUGUAAUCAUGAUGGCUGAUGUAGAGUCAGGAUAUGUGUGGCUUUCUAUCACAGAAGGGACAAGACUGG [Deportation 36 - Jieux - Exclusion NG 3] (Eterna round: R96, puzzle: Exclusion NG 3) | 42.9 | 34.9 |  |  |  | 26.2
12 | ACAUGAGGAUCACCCAUGUACAGGGUUUAGUUUCAUCGUUUGAAGGAUAUACUCAGUUAGUUGUUGUAGAAGGUCACAUUUUGG [JR_ExcNG3_Sub004] (Eterna round: R96, puzzle: Exclusion NG 3) | 138 | 126 |  |  |  | 108
13 | ACAUGAGGAUCACCCAUGUCAGGCGGGUCCACUCCGGCUGUUGAGGAUAUAGUUCGGUAUCCGCGCUAGAAGGUGAGGGCCGGC [Aenatbe mod 22] (Eterna round: R96, puzzle: Exclusion NG 3) | 16 | 18.2 |  |  |  | 15.3
14 | ACAUGAGGAUCACCCAUGUCAGGCUGGUCCGCUCCGGCUGUUGAGGAUAUAGCACGGUAUCCGCGCUAGAAGGUGAGGGCCGGC [Aenatbe mod 30] (Eterna round: R96, puzzle: Exclusion NG 3) | 21.6 | 22.5 |  |  |  | 18
